# Assay results reported in the RNAGym collection of RNA variant scans (doi:10.7554/elife.80360).
# B1: Hairpin Ribozyme (parent)
# chain: GUCCUCUUUCACGUGCGCGUGAAAGAGAGAAGUGAACCAGAGAAACACACGUUGUGGUAUAUUACCUGGUA
# Variants of: B1
# Experiment: self-cleavage, relative activity (ratio to wild type); higher = more cleavage; co-transcriptional
row,Variant,self-cleavage
1,C10A G51U,0.678
2,C10A G54A,0.338
3,C10A G54U,0.426
4,C10A G57C,0.174
5,C10A G57U,0.221
6,C10A G68U,0.201
7,C10A G69U,0.14
8,C10A U14C,0.888
9,C10A U20C,0.732
10,C10A U33G,0.114
11,C10A U52A,0.783
12,C10A U52C,0.81
13,C10A U53A,0.678
14,C10A U53C,0.888
15,C10A U58G,0.592
16,C10A U62A,0.238
17,C10A U63C,0.207
18,C10A U63G,0.152
19,C10A U67C,0.188
20,C10A U67G,0.171
21,C10A U70A,0.498
22,C10G,0.737
23,C10G A11G,0.655
24,C10G A22G,0.649

row,Variant,self-cleavage
1,C10G A23G,0.419
2,C10G A24G,0.63
3,C10G A24U,0.468
4,C10G A31U,0.084
5,C10G A36C,0.498
6,C10G A41C,0.777
7,C10G A41G,0.734
8,C10G A41U,1.09
9,C10G A43C,0.128
10,C10G A43U,0.157
11,C10G A45C,0.114
12,C10G A45G,0.118
13,C10G A45U,0.136
14,C10G A47G,0.177
15,C10G A47U,0.175
16,C10G A49C,0.198
17,C10G A49U,0.21
18,C10G A61G,0.233
19,C10G A64G,0.397
20,C10G A64U,0.199
21,C10G A71G,0.705
22,C10G A71U,0.589
23,C10G C12G,0.477
24,C10G C12U,0.503

row,Variant,self-cleavage
1,C10G C16G,0.559
2,C10G C18U,0.842
3,C10G C38A,0.168
4,C10G C46G,0.162
5,C10G C48U,0.168
6,C10G C50G,0.142
7,C10G C50U,0.344
8,C10G C65U,0.307
9,C10G C66A,0.0906
10,C10G G13U,0.528
11,C10G G15C,0.962
12,C10G G19A,0.64
13,C10G G19U,0.507
14,C10G G25C,0.358
15,C10G G27U,0.195
16,C10G G29U,0.136
17,C10G G32A,0.163
18,C10G G32C,0.207
19,C10G G34A,0.978
20,C10G G40A,0.194
21,C10G G40U,0.161
22,C10G G42A,0.185
23,C10G G54U,0.471
24,C10G G57U,0.243

row,Variant,self-cleavage
1,C10G G68C,0.199
2,C10G G69C,0.23
3,C10G U20A,0.484
4,C10G U33A,0.138
5,C10G U52A,0.705
6,C10G U52C,0.536
7,C10G U53G,0.632
8,C10G U55C,0.16
9,C10G U58G,0.441
10,C10G U60G,0.442
11,C10U,0.775
12,C10U A11U,0.577
13,C10U A22G,0.635
14,C10U A22U,0.373
15,C10U A23C,0.637
16,C10U A23G,0.551
17,C10U A23U,0.652
18,C10U A26G,0.722
19,C10U A28C,0.305
20,C10U A30G,0.135
21,C10U A35G,0.689
22,C10U A35U,0.568
23,C10U A36U,0.487
24,C10U A39G,0.242

row,Variant,self-cleavage
1,C10U A43U,0.0631
2,C10U A44G,0.117
3,C10U A44U,0.187
4,C10U A45C,0.159
5,C10U A45G,0.0999
6,C10U A45U,0.111
7,C10U A59U,0.124
8,C10U A64G,0.606
9,C10U A64U,0.134
10,C10U A71C,1.23
11,C10U A71U,0.706
12,C10U C12G,0.612
13,C10U C16U,0.871
14,C10U C37A,0.364
15,C10U C37G,0.299
16,C10U C46A,0.15
17,C10U C46G,0.0871
18,C10U C48U,0.209
19,C10U C50G,0.195
20,C10U C65G,0.284
21,C10U C66A,0.183
22,C10U G15A,0.722
23,C10U G15C,0.825
24,C10U G15U,0.843

row,Variant,self-cleavage
1,C10U G19U,0.672
2,C10U G25U,0.509
3,C10U G29A,0.158
4,C10U G34U,1.09
5,C10U G40C,0.138
6,C10U G40U,0.203
7,C10U G42A,0.195
8,C10U G51C,0.783
9,C10U G54C,0.444
10,C10U G56A,0.181
11,C10U G56C,0.25
12,C10U G56U,0.162
13,C10U G57A,0.249
14,C10U G57U,0.239
15,C10U G68U,0.189
16,C10U U14A,0.811
17,C10U U20C,0.722
18,C10U U33C,0.0734
19,C10U U33G,0.196
20,C10U U52A,0.761
21,C10U U53C,0.708
22,C10U U58A,0.533
23,C10U U60A,0.67
24,C10U U62G,0.0799

row,Variant,self-cleavage
1,C10U U67C,0.206
2,C10U U70A,0.704
3,C10U U70C,0.637
4,A11C A22U,0.554
5,A11C A23C,0.622
6,A11C A23G,0.642
7,A11C A23U,0.6
8,A11C A28G,0.951
9,A11C A30G,0.0919
10,A11C A31C,0.116
11,A11C A35C,0.764
12,A11C A36C,0.471
13,A11C A44U,0.155
14,A11C A45G,0.162
15,A11C A47C,0.267
16,A11C A47G,0.0993
17,A11C A49C,0.192
18,A11C A59C,0.0956
19,A11C A59G,0.161
20,A11C A59U,0.112
21,A11C A64U,0.237
22,A11C C12A,0.636
23,A11C C37A,0.37
